The assay concerns the target collagen scaffold (bovine collagen type I) (bovine, UniProt P02453 162-1217; P02465 80-1117). Kind of assay: cell-based or functional assay.

Ends that are not written are not given here.

Sequence of collagen scaffold (bovine collagen type I) (P02453 162-1217, chain 1 of 2): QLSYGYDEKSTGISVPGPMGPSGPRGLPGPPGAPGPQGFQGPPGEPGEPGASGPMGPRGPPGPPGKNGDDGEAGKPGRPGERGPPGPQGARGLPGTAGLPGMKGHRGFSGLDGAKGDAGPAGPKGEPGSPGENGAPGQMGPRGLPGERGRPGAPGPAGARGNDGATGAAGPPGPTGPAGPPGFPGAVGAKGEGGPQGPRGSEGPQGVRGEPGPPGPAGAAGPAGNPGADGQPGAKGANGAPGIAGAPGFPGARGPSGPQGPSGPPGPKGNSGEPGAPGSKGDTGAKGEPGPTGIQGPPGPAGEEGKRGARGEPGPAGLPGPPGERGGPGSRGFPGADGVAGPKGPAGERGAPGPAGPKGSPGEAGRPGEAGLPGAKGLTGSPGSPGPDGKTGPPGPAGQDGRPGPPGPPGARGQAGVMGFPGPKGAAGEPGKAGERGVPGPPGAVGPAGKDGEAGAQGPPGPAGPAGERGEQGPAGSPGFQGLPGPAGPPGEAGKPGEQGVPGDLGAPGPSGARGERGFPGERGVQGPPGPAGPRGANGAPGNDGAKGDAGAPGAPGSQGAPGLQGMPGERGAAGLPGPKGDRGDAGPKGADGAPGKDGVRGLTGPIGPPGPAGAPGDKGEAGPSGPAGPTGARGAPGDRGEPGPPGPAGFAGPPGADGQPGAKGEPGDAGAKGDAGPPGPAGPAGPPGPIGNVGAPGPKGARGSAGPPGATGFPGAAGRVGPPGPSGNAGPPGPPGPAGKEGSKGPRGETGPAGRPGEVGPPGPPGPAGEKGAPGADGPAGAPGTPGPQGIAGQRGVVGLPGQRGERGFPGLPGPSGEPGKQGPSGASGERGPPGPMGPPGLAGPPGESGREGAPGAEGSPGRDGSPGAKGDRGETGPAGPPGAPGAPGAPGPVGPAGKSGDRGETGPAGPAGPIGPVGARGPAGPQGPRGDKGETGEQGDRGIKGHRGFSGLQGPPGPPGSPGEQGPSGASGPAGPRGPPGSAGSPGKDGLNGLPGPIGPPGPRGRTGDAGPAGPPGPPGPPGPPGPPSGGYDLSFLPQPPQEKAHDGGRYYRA
Sequence of collagen scaffold (bovine collagen type I) (P02465 80-1117, chain 2 of 2): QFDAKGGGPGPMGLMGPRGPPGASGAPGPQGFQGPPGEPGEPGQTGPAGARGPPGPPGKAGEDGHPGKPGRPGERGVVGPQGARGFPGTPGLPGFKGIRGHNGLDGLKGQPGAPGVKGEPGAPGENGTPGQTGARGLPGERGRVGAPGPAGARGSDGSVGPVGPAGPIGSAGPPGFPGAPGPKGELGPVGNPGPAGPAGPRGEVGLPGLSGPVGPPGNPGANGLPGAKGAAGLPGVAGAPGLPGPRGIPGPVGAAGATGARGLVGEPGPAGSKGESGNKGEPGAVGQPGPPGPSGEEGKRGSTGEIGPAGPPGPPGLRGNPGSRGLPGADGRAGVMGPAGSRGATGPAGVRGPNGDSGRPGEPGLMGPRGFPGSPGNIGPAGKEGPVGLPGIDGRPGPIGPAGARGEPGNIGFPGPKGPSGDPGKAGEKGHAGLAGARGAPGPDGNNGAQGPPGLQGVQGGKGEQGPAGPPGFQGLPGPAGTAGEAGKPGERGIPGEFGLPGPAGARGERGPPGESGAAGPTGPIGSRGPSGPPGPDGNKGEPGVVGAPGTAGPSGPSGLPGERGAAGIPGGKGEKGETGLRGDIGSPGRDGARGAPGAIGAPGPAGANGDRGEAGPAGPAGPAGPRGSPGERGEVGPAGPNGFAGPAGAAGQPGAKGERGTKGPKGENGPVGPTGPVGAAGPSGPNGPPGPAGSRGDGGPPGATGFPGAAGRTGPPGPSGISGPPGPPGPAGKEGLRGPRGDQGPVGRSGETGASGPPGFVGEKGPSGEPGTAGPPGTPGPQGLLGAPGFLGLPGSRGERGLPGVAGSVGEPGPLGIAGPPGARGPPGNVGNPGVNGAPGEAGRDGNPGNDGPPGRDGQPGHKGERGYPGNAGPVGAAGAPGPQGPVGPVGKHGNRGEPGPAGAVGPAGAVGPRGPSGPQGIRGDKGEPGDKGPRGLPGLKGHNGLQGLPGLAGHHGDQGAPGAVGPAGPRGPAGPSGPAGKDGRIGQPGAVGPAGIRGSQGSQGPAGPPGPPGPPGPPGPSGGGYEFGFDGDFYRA

For the molecule GIGDPVTCLKSGAICHPVFCPRRYKQIGTCGLPGTKCCKKP (ends and bridges not checked; cysteine pairing not given here) [human β-defensin-2], the “hBD2 released by the collagen scaffold (agar diffusion assay, zone of inhibition, 10 µg hβD2)” value worked out at 40%; the “hBD2 retarded by the collagen scaffold (agar diffusion assay, zone of inhibition, 10 µg hβD2)” value was found to be 60%; the “killing of the bacteria, collagen scaffold treated with 5 µg HAS, 4 µg hβD2, microdilution assay” value turned out to be 100%; the “killing rate, collagen scaffold treated with 5 µg BSA, 4 µg hβD2, microdilution assay” value came to 98%. Besides, the “killing rate, collagen scaffold without gelatine (unblocked), 4 µg hβD2, microdilution assay” value was found to be 86% and the “killing, collagen scaffold pre-treated with 10 µl of a 0.1% gelatine solution, 4 µg hβD2, microdilution assay” value was found to be 94%.

Source of the values: patent publication EP2585123B1 (Planton GmbH, dated 2014).
